The series concerns the target T1, ETS1 ΔN279 (UniProt P14921 279-441).
T1 sequence: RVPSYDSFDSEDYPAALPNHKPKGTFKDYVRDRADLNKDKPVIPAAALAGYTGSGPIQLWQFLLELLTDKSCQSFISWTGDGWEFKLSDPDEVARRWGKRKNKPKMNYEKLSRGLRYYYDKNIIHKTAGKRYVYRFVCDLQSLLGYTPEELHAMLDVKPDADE
The experiment in a line: EMSA.

Our source for the Kd values is article PMC7416497.

B1: SC1 (dsDNA)
DNA 1: TCGACGGCCAAGCCGGAAGTGAGTGCC
DNA 2: TCGAGGCACTCACTTCCGGCTTGGCCG
Regarding B1, binding was characterised by a dissociation constant (Kd) of 400 pM.
